Patent publication US20130225488A1 (CADILA HEALTHCARE, published 2013)
Where no end group is shown, it is not given here. [ ]: non-standard residue; d: D form. Aib = CC(C)(N)C(=O)O

What was measured:
Human GLP-1 receptor = Human GLP-1 receptor (human, UniProt P43220 24-463); assay: cell-based or functional assay
Human glucagon receptor = Human glucagon receptor (human, UniProt P47871 26-477); assay: cell-based or functional assay

Sequence of Human GLP-1 receptor (P43220 24-463): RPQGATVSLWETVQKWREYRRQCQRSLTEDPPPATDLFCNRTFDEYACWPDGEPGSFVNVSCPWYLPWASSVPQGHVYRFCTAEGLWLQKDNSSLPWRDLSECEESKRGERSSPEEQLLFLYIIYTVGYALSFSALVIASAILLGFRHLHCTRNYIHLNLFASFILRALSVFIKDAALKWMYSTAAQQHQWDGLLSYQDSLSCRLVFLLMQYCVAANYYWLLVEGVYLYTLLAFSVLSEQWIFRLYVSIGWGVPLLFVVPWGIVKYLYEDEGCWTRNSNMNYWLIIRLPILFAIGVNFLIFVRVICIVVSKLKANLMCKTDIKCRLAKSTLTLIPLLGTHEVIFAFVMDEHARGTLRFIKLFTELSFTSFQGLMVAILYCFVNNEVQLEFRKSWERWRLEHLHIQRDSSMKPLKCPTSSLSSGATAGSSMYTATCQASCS

Binder	cAMP release, % activity with respect to control; test compound 1 nM (Human GLP-1 receptor)	cAMP release, % activity with respect to control; test compound 10 nM (Human GLP-1 receptor)	cAMP release, % activity with respect to control; test compound 100 nM (Human GLP-1 receptor)	cAMP release, % activity with respect to control; test compound 1 µM (Human GLP-1 receptor)	cAMP release, % activity with respect to control; test compound 10 µM (Human GLP-1 receptor)	cAMP production with saturated glucagon peptide; test compound 1 nM (Human glucagon receptor)	cAMP production with saturated glucagon peptide; test compound 10 nM (Human glucagon receptor)	cAMP production with saturated glucagon peptide; test compound 100 nM (Human glucagon receptor)	cAMP production with saturated glucagon peptide; test compound 10 µM (Human glucagon receptor)	cAMP production with saturated glucagon peptide; test compound '1 nM' (Human glucagon receptor)
HSQGTFTSD[Bip(OMe)][Bip(2CF3)] (not fully specified (C-terminus); printed as HSQGTFTSD-Bip(OMe)-Bip(2CF3)) [Seq. ID. No. 8: HSQGTFTSD-Bip(OMe)-Bip(2CF3)]	40%	81%	87%	95%	98%	4 pmol/ml/µg prt	2 pmol/ml/µg prt	0 pmol/ml/µg prt	0 pmol/ml/µg prt	0 pmol/ml/µg prt
HXQGTXTSDXX (Aib at 2; α-Me-2F-Phe at 6; Bip(OMe) at 10; Bip(Pyr) at 11) [Seq. ID. No. 30: H-Aib-QGT-(α-Me-2F-Phe)-TSD-Bip(OMe)-Bip(Pyr)]	93%	99%	99%	99%	99%	9 pmol/ml/µg prt	6 pmol/ml/µg prt	5 pmol/ml/µg prt	0 pmol/ml/µg prt	3 pmol/ml/µg prt
HSQGTFTSD[Bip(OMe)][Bip(2F)] (not fully specified (C-terminus); printed as HSQGTFTSD-Bip(OMe)-Bip(2F)) [Seq. ID. No. 7: HSQGTFTSD-Bip(OMe)-Bip(2F)]	45%	84%	90%	99%	99%	6 pmol/ml/µg prt	5 pmol/ml/µg prt	2 pmol/ml/µg prt	0 pmol/ml/µg prt	0 pmol/ml/µg prt
HXQGTXTSDXX (Aib at 2; α-Me-2F-Phe at 6; Bip(OMe) at 10; Bip(2Me) at 11) [Seq. ID. No. 29: H-Aib-QGT-(α-Me-2F-Phe)-TSD-Bip(OMe)-Bip(2Me)]	99%	99%	99%	99%	99%	10 pmol/ml/µg prt	8 pmol/ml/µg prt	6 pmol/ml/µg prt	1 pmol/ml/µg prt	4 pmol/ml/µg prt
HXQGTXTSDXX (Aib at 2; α-Me-2F-Phe at 6; Bip(OMe) at 10; Bip(2CF3) at 11; C-terminal amide (CONH2)) [Seq. ID. No. 32: H-Aib-QGT-(α-Me-2F-Phe)-TSD-Bip(OMe)-Bip(2CF3)]	99%	99%	99%	99%	99%	4 pmol/ml/µg prt	2 pmol/ml/µg prt	0 pmol/ml/µg prt	0 pmol/ml/µg prt	0 pmol/ml/µg prt
HXQGTXTSDXX (ACP at 2; α-Me-2F-Phe at 6; Bip(OMe) at 10; Bip(2Me) at 11) [Seq. ID. No. 33: H-(ACP)-QGT-(α-Me-2F-Phe)-TSD-Bip(OMe)-Bip(2Me)]	99%	99%	99%	99%	99%	0 pmol/ml/µg prt	0 pmol/ml/µg prt	0 pmol/ml/µg prt	0 pmol/ml/µg prt	0 pmol/ml/µg prt
HAQGTFTSD[Bip(OMe)][Bip(2F)] [Seq. ID. No. 11: HAQGTFTSD-Bip(OMe)-Bip(2F)]	51%	86%	91%	99%	99%	10 pmol/ml/µg prt	8 pmol/ml/µg prt	6 pmol/ml/µg prt	0 pmol/ml/µg prt	2 pmol/ml/µg prt
HXQGTXTSDXX (not fully specified; ACP at 2; α-Me-2F-Phe at 6; Bip(OMe) at 10; Bip(Pyr) at 11) [Seq. ID. No. 34: H-(ACP)-QGT-(α-Me-2F-Phe)-TSD-Bip(OMe)-Bip(Pyr)]	99%	99%	99%	99%	99%	0 pmol/ml/µg prt	0 pmol/ml/µg prt	0 pmol/ml/µg prt	0 pmol/ml/µg prt	0 pmol/ml/µg prt
HXQGTXTSDXX (not fully specified; ACP at 2; α-Me-2F-Phe at 6; Bip(OMe) at 10; Bip(2F) at 11) [Seq. ID. No. 35: H-(ACP)-QGT-(α-Me-2F-Phe)-TSD-Bip(OMe)-Bip(2F)]	99%	99%	99%	99%	99%	5 pmol/ml/µg prt	3 pmol/ml/µg prt	1 pmol/ml/µg prt	0 pmol/ml/µg prt	0 pmol/ml/µg prt
H[Aib]QGTFTSD[Bip(OMe)][Bip(2F)] [Seq. ID. No. 15: H-Aib-QGTFTSD-Bip(OMe)-Bip(2F)]	66%	97%	99%	99%	99%	6 pmol/ml/µg prt	5 pmol/ml/µg prt	2 pmol/ml/µg prt	0 pmol/ml/µg prt	0 pmol/ml/µg prt
HXQGTXTSDXX (Aib at 2; α-Me-2F-Phe at 6; Bip(OMe) at 10; Bip(2F) at 11) [Seq. ID. No. 31: H-Aib-QGT-(α-Me-2F-Phe)-TSD-Bip(OMe)-Bip(2F)]	93%	99%	99%	99%	99%	6 pmol/ml/µg prt	5 pmol/ml/µg prt	2 pmol/ml/µg prt	0 pmol/ml/µg prt	0 pmol/ml/µg prt
H[Aib]QGTFTSD[Bip(OMe)][Bip(Pyr)] [Seq. ID. No. 14: H-Aib-QGTFTSD-Bip(OMe)-Bip(Pyr)]	62%	94%	99%	99%	99%	9 pmol/ml/µg prt	6 pmol/ml/µg prt	5 pmol/ml/µg prt	0 pmol/ml/µg prt	3 pmol/ml/µg prt
H[Aib]QGTFTSD[Bip(OMe)][Bip(2Me)] [Seq. ID. No. 13: H-Aib-QGTFTSD-Bip(OMe)-Bip(2Me)]	60%	92%	98%	99%	99%	10 pmol/ml/µg prt	8 pmol/ml/µg prt	6 pmol/ml/µg prt	1 pmol/ml/µg prt	4 pmol/ml/µg prt
HAQGTFTSD[Bip(OMe)][Bip(2Me)] (not fully specified (C-terminus); printed as HAQGTFTSD-Bip(OMe)-Bip(2Me)) [Seq. ID. No. 9: HAQGTFTSD-Bip(OMe)-Bip(2Me)]	38%	77%	85%	94%	97%	18 pmol/ml/µg prt	16 pmol/ml/µg prt	12 pmol/ml/µg prt	6 pmol/ml/µg prt	8 pmol/ml/µg prt
HSQGTFTSD[Bip(OMe)][Bip(2Me)]-NH2 [Seq. ID. No. 5: HSQGTFTSD-Bip(OMe)-Bip(2Me)]	38%	78%	86%	95%	98%	20 pmol/ml/µg prt	18 pmol/ml/µg prt	16 pmol/ml/µg prt	12 pmol/ml/µg prt	14 pmol/ml/µg prt
